Assay results taken from publication PMC11982978, “Cancer hotspot mutations rewire ERK2 specificity by selective exclusion of docking interactions” (The Journal of Biological Chemistry, 2025).
Square brackets hold non-standard residues; d marks the D form. Ends that are not written are not given here.

B1: ISG20 D-peptide I1R/R2I (peptide)
peptide: YARIARRGLPRLAVSD
modifications: not fully specified (some residues)
notes: ISG20, human, residues 168-181 with the changes; numbers count on: the 14-mer peptide (position 1 = Ile168); also called ISG20^I1R/R2I; source: synthetic peptide (GenScript)
B2: ISG20 D-peptide WT (competitive kinase assay form, with N-terminal Tyr-Ala) (peptide)
peptide: YAIRARRGLPRLAVSD
modifications: not fully specified
notes: ISG20, human, residues 168-181; also called ISG20^WT; ISG20 peptide WT; source: synthetic peptide (GenScript)
B3: ISG20 D-peptide G6Q (peptide)
peptide: [dY][dA][dI][dR][dA][dR][dR][dQ][dL][dP][dR][dL][dA][dV][dS][dD]
notes: ISG20, human, residues 168-181 with the change; numbers count on: the 14-mer peptide (position 1 = Ile168); also called ISG20^G6Q; source: synthetic peptide (GenScript)
B4: ISG20 D-peptide I1N (peptide)
peptide: YANRARRGLPRLAVSD
modifications: not fully specified (some residues)
notes: ISG20, human, residues 168-181 with the change; numbers count on: the 14-mer peptide (position 1 = Ile168); also called ISG20^I1N; source: synthetic peptide (GenScript)

These binders were tested against T1, Active phosphorylated His6-tagged ERK2 WT (rat (p-0033 says mouse), UniProt P63086 3-358, phosphorylated (active form; sites not given)) (assay: competitive peptide kinase assay; D-peptide titrated as competitive inhibitor of 10 nM ERK2 on 5 μM D-site dependent reporter peptide (AQT0376), 10 μM ATP; 54 mM HEPES pH 7.4, 1.2 mM DTT, 0.01% Brij-35, 1% glycerol, 0.2 mg/ml BSA, 10 mM MgCl2; fluorescence read-out; IC50 as relative binding affinity). Conditions: both partners purified.
T1 construct: ERK2 (MAPK1); rat numbering; Same plasmid as the crystallised protein m9, but phosphorylated; also called WT ERK2; His6-ERK2; source: E. coli BL21(DE3), co-expressed with GST-MEK1ΔN3, purified (Talon resin)

Row | IC50 | Binder
1 | 200 µM | B1
2 | 5.4 µM | B2
3 | 41 µM | B3
4 | 190 µM | B4
